Results on one substance are retold here after patent publication US20260053918A1.

For this experiment, the target named is CD19 (UniProt P15391). The experiment can be described thus: cell-based or functional assay.

Consider “CD19R:CD28:z(CO) CAR containing the 2 point mutations, L235E and N297Q, in the CH2 portion of the IgG4 spacer (CD19R(EQ)), expressed on CMV/CAR T cells”, for which the total cell increase after 2 rounds of stimulation with irradiated CD19-expressing NIH3T3 cells lay within 120 to 150 fold.
